The results in this text go back to the supplement of paper PMC7877785.

The nature of this data set: self-splicing fitness, log relative to wild type (ln ratio); higher = more splicing; Tetrahymena group I intron in knt gene, E. coli kanamycin selection, DiMSum; sequences stand for … in CUCUCU…GGAGGGAAAAGUUAUCAGGCAUGCACCUGGUAGCUAGUCUUUAAACCAAUAGAUUGCAUCGGUUUAAAAGGCAAGACCGUCAAAUUGCGGGAAAGGGGUCAACAGCCGUUCAGUACCAAGUCUCAGGGGAAACUUUGAGAUGGCCUUGCAAAGGGUAUGGUAAUAAGCUGACGGACAUGGUCCUAACCACGCAGCCAAGUCCUAAGUCAACAGAUCUUCUGUUGAUAUGGAUGCAGUUCACAGACUAAAUGUCGGUCGGGGAAGAUGUAUUCUUCUCAUAAGAUAUAGUCGGACCUCUCCUUAAUGGGAGCUAGCGGAUGAAGUGAUGCAACACUGGAGCCGCUGGGAACUAAUUUGUAUGCGAAAGUAUAUUGAUUAGUUUUGGAGUACUCGUGGUCG
The method, boiled down: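 Fitness was computed with DiMSum as the error-weighted combination of replicate fold changes, kanamycin versus none, each normalised to wild type. The library randomised all eight intron nucleotides of the P1ex region, with the intron placed in the knt kanamycin-resistance gene on pET-22b(+) in E. coli BL21(DE3). Six replicate transformations were grown overnight at 37°C or 30°C on LB agar with or without 25 μg/mL kanamycin, plus 100 μg/mL carbenicillin, 50 μM IPTG and 0.2% rhamnose. Pooled colonies were amplicon-sequenced on an Illumina HiSeq 2500.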

± gives the uncertainty stated by the source.

Consider UGCGAGCAAUAUUACGAUCA, for which the “self-splicing fitness (ln)” value (30 °C) was 0.0986 ± 0.13 and the “self-splicing fitness (ln)” value (37 °C) was 0.104 ± 0.14.
The like results for AGGCAGCAAUAUUACGCAAC were, in that order, -0.42 ± 0.21 and -1.41 ± 0.34.
The like results for GCUCAGCAAUAUUACGAUAG were, in that order, -1.95 ± 0.11 and -1.26 ± 0.096.
For CCCGAGCAAUAUUACGGUCG, the “self-splicing fitness (ln)” value runs as follows: (30 °C) -3.56 ± 0.24; (37 °C) -2.58 ± 0.2.
The like results for UAUAAGCAAUAUUACGUGAU were, in that order, -1.89 ± 0.13 and -1.45 ± 0.17.
The like results for CGUCAGCAAUAUUACGAACC were, in that order, -1.37 ± 0.41 and 0.157 ± 0.37.
Turning to GGUGAGCAAUAUUACGACAC, the “self-splicing fitness (ln)” value was -0.5 ± 0.18 (30 °C) and 0.114 ± 0.22 (37 °C).
For AUGGAGCAAUAUUACGUGCG, the “self-splicing fitness (ln)” value is, setting by setting: (30 °C) -3.44 ± 0.32; (37 °C) -1.8 ± 0.23.
For the sequence GCUCAGCAAUAUUACGAACG, the “self-splicing fitness (ln)” value is -0.679 ± 0.15 (30 °C) and -0.216 ± 0.17 (37 °C).
The like results for CAGCAGCAAUAUUACGAAAA were, in that order, -2.36 ± 0.2 and -2.26 ± 0.28.
Consider UAACAGCAAUAUUACGCCAA, for which the “self-splicing fitness (ln)” value by setting is: (30 °C) -3.04 ± 0.19; (37 °C) -1.38 ± 0.14.
The like results for CGCAAGCAAUAUUACGGGGU were, in that order, -4.04 ± 0.18 and -1.33 ± 0.12.
The like results for ACACAGCAAUAUUACGGCGU were, in that order, -0.67 ± 0.07 and -0.414 ± 0.093.
The like results for AGUAAGCAAUAUUACGUUCU were, in that order, -0.729 ± 0.085 and -1.21 ± 0.11.
Turning to AUCAAGCAAUAUUACGGAGC, the “self-splicing fitness (ln)” value is, setting by setting: (30 °C) -2.98 ± 0.28; (37 °C) -1.92 ± 0.25.
The like results for ACUCAGCAAUAUUACGUAGG were, in that order, -0.866 ± 0.06 and -0.368 ± 0.092.
The like results for CCCCAGCAAUAUUACGAUGG were, in that order, -3.49 ± 0.15 and -2.82 ± 0.21.
The like results for GUUGAGCAAUAUUACGUAUC were, in that order, -2.91 ± 0.15 and -1.15 ± 0.15.
Consider UAUUAGCAAUAUUACGAUUU, for which the “self-splicing fitness (ln)” value is, setting by setting: (30 °C) -1.76 ± 0.14; (37 °C) -0.438 ± 0.12.
In the case of UUCUAGCAAUAUUACGCGAC, under “30 °C”, the “self-splicing fitness (ln)” value was -1.97 ± 0.38.
For the sequence UAUUAGCAAUAUUACGCUAU, the “self-splicing fitness (ln)” value (37 °C) is -2.14 ± 0.29.
For the sequence AGUAAGCAAUAUUACGGCUC, the “self-splicing fitness (ln)” value (30 °C) was -2.15 ± 0.2 and the “self-splicing fitness (ln)” value (37 °C) is -1.79 ± 0.27.
With CUAAAGCAAUAUUACGAGAA, the “self-splicing fitness (ln)” value is -2.99 ± 0.19 (30 °C) and -3.25 ± 0.33 (37 °C).
The like results for CACAAGCAAUAUUACGUAGC were, in that order, -4 ± 0.12 and -2.59 ± 0.13.
The like results for UGUAAGCAAUAUUACGUCAG were, in that order, -1.14 ± 0.093 and -0.0311 ± 0.11.
The like results for GUGAAGCAAUAUUACGUCAA were, in that order, -1.07 ± 0.077 and -0.245 ± 0.084.
In the case of CGAAAGCAAUAUUACGCUAA, the “self-splicing fitness (ln)” value is -3.88 ± 0.4 (30 °C) and -1.53 ± 0.21 (37 °C).
On to UAACAGCAAUAUUACGACGU, for which the “self-splicing fitness (ln)” value runs as follows: (30 °C) -1.16 ± 0.071; (37 °C) -0.452 ± 0.091.
The like results for CAGGAGCAAUAUUACGAGAG were, in that order, -1.92 ± 0.15 and -1.67 ± 0.17.
The like results for AUGAAGCAAUAUUACGGGUC were, in that order, -3.75 ± 0.18 and -2.63 ± 0.23.
For the sequence UCCGAGCAAUAUUACGCAAC, the “self-splicing fitness (ln)” value is, setting by setting: (30 °C) -2.57 ± 0.3; (37 °C) -1.66 ± 0.33.
The like results for UUUUAGCAAUAUUACGAUAG were, in that order, -0.792 ± 0.26 and -0.639 ± 0.46.
The like results for AGAAAGCAAUAUUACGGUAA were, in that order, -2.66 ± 0.25 and -0.265 ± 0.14.
Take CACGAGCAAUAUUACGAAGU: the “self-splicing fitness (ln)” value (30 °C) was -1.68 ± 0.13 and the “self-splicing fitness (ln)” value (37 °C) is -2.23 ± 0.19.
For CGGGAGCAAUAUUACGCCUA, the “self-splicing fitness (ln)” value is, setting by setting: (30 °C) -2.84 ± 0.27; (37 °C) -2.14 ± 0.19.
On to GCUGAGCAAUAUUACGUACG, for which the “self-splicing fitness (ln)” value (30 °C) is -2.59 ± 0.27 and the “self-splicing fitness (ln)” value (37 °C) is -1.16 ± 0.29.
In the case of ACGAAGCAAUAUUACGGAAA, the “self-splicing fitness (ln)” value reads like this: (30 °C) -2.38 ± 0.17; (37 °C) -3.02 ± 0.21.
On to CACCAGCAAUAUUACGUUAG, for which the “self-splicing fitness (ln)” value is, setting by setting: (30 °C) -0.512 ± 0.048; (37 °C) 0.279 ± 0.064.
